# According to PMC7610691 (Nature structural & molecular biology, 2020):
# T1: Smc2 (S. cerevisiae condensin subunit) (S. cerevisiae, UniProt P38989 1-1170)
# T1 sequence: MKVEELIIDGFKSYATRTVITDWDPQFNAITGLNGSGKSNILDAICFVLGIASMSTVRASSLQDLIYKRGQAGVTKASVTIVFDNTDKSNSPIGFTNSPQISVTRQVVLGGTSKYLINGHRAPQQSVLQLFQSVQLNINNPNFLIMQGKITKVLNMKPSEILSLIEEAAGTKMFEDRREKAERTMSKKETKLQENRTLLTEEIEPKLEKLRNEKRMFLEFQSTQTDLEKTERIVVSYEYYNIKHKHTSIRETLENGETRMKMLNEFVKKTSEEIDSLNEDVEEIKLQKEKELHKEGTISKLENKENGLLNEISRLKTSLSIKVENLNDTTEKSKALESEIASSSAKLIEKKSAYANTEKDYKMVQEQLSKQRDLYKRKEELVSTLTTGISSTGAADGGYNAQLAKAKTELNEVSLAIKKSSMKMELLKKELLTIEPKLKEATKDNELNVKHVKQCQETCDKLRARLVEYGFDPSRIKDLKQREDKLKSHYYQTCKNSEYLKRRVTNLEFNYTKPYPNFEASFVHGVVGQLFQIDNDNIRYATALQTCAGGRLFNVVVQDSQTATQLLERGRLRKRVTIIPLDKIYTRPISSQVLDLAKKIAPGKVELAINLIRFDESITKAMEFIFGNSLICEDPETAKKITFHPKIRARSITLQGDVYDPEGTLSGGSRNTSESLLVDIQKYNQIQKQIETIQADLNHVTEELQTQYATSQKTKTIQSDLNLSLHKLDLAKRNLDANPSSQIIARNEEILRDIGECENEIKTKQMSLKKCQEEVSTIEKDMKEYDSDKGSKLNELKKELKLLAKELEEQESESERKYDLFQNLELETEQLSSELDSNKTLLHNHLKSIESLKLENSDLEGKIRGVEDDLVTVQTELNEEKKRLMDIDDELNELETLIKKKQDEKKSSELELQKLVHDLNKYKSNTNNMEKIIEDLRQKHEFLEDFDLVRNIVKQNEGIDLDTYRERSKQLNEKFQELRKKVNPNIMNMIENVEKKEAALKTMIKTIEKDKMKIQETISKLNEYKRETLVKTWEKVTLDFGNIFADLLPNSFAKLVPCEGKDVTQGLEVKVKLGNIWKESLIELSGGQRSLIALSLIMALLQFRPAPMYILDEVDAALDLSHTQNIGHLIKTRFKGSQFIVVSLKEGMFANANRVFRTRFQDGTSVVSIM
# Biological target: T1, Smc2 (S. cerevisiae condensin subunit)
# Assay: cryo-EM structure
binder,measurement,value
Ycg1 (S. cerevisiae condensin HEAT-repeat subunit) (natural protein) MQDPDGIDINTKIFNSVAEVFQKAQGSYAGHRKHIAVLKKIQSKAVEQGYEDAFNFWFDKLVTKILPLKKNEIIGDRIVKLVAAFIASLERELILAKKQNYKLTNDEEGIFSRFVDQFIRHVLRGVESPDKNVRFRVLQLLAVIMDNIGEIDESLFNLLILSLNKRIYDREPTVRIQAVFCLTKFQDEEQTEHLTELSDNEENFEATRTLVASIQNDPSAEVRRAAMLNLINDNNTRPYILERARDVNIVNRRLVYSRILKSMGRKCFDDIEPHIFDQLIEWGLEDRELSVRNACKRLIAHDWLNALDGDLIELLEKLDVSRSSVCVKAIEALFQSRPDILSKIKFPESIWKDFTVEIAFLFRAIYLYCLDNNITEMLEENFPEASKLSEHLNHYILLRYHHNDISNDSQSHFDYNTLEFIIEQLSIAAERYDYSDEVGRRSMLTVVRNMLALTTLSEPLIKIGIRVMKSLSINEKDFVTMAIEIINDIRDDDIEKQEQEEKIKSKKINRRNETSVDEEDENGTHNDEVNEDEEDDNISSFHSAVENLVQGNGNVSESDIINNLPPEKEASSATIVLCLTRSSYMLELVNTPLTENILIASLMDTLITPAVRNTAPNIRELGVKNLGLCCLLDVKLAIDNMYILGMCVSKGNASLKYIALQVIVDIFSVHGNTVVDGEGKVDSISLHKIFYKVLKNNGLPECQVIAAEGLCKLFLADVFTDDDLFETLVLSYFSPINSSNEALVQAFAFCIPVYCFSHPAHQQRMSRTAADILLRLCVLWDDLQSSVIPEVDREAMLKPNIIFQQLLFWTDPRNLVNQTGSTKKDTVQLTFLIDVLKIYAQIEKKEIKKMIITNINAIFLSSEQDYSTLKELLEYSDDIAENDNLDNVSKNALDKLRNNLNSLIEEINERSETQTKDENNTANDQYSSILGNSFNKSSNDTIEHAADITDGNNTELTKTTVNISAVDNTTEQSNSRKRTRSEAEQIDTSKNLENMSIQDTSTVAKNVSFVLPDEKSDAMSIDEEDKDSESFSEVC,binding result,binds
